Substitutions are numbered along the chain they refer to. Like-named read-outs stand apart in the source and are kept apart here.
T1: cell-bound CD73 (human, UniProt P21589 27-549)
T1 sequence (looked up): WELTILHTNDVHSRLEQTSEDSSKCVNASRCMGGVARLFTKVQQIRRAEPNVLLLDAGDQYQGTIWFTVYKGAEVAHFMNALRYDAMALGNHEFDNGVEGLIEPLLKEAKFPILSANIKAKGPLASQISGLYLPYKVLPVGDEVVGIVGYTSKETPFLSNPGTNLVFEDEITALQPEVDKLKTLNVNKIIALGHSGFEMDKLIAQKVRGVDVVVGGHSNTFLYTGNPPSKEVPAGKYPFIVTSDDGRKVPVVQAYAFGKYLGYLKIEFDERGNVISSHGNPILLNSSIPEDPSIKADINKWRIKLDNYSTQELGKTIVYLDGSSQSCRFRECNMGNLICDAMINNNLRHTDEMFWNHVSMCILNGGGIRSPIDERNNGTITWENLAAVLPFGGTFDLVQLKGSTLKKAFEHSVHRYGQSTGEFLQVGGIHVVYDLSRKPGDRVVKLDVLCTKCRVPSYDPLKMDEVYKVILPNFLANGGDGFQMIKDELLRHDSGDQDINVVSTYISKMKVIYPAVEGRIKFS

T2: non-cell-bound CD73 (human, UniProt P21589 27-549, limits assumed)
T2 sequence (looked up): T1 sequence (looked up)

T3: recombinant human CD73 protein (human, UniProt P21589 27-549, limits assumed)
T3 sequence (looked up): T1 sequence (looked up)

T4: human CD73-His (human, UniProt P21589 27-549)
T4 construct: extracellular domain; The SPR analyte is only called 'human CD73-His' (non-covalent dimeric antigen); also called HuCD73 His tagged; HuCD73his20170303
T4 sequence: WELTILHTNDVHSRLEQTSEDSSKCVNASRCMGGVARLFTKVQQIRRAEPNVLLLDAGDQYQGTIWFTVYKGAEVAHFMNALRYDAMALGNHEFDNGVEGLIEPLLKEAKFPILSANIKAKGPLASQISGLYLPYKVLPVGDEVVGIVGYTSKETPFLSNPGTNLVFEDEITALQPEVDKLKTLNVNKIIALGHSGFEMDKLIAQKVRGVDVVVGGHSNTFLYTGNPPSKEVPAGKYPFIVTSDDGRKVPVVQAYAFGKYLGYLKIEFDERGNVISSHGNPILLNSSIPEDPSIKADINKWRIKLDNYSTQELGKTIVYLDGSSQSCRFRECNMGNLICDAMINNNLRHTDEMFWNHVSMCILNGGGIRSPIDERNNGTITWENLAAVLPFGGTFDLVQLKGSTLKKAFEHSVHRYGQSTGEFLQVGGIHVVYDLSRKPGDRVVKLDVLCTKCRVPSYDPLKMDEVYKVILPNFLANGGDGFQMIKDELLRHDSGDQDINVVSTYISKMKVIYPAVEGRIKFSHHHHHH

T5: mouse CD73 (mouse, UniProt Q61503 29-551, limits assumed)
T5 construct: also called murine CD73
T5 sequence (looked up): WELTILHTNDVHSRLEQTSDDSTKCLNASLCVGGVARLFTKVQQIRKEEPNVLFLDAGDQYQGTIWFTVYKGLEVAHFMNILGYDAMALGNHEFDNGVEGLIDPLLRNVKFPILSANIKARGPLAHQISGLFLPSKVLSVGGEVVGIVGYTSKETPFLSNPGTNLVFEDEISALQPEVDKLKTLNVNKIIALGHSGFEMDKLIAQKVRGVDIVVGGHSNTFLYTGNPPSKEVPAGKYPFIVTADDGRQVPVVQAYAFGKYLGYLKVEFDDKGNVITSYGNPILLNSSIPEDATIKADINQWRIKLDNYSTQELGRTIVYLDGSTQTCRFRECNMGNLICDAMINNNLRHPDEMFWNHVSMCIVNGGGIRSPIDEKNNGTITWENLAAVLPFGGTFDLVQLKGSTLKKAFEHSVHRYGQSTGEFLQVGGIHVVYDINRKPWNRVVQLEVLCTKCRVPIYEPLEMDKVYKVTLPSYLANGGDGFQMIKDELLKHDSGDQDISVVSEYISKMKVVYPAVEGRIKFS

B1: B2 (antibody, human IgG1, kappa, L234A L235A, V domains shown)
VH: EVQLVESGGGLVQPGGSLRLSCAASGLTFSSYVMSWVRQAPGKGLEWVSTISSGGVSTYYPDTVKGRFTISRDNSKNTLYLQMNSLRAEDTAVYYCAKRETARATGFAYWGQGTLVTVSA
VL: DIQMTQSPSSLSASVGDRVTITCKASQSVSDDVTWYQQKPGKAPKLLIYYASNRYTGVPSRFSGSGSGTDFTFTISSVQPEDIATYYCQQDYSSPWTFGGGTKLEIKR
notes: Humanized monoclonal antibody; also called anti-CD73 antibody B2
B2: C2 (antibody, human IgG1, kappa, L234A L235A, V domains shown)
VH: QVQLVQSGAEVKKPGDSVKVSCKASGYTFTTYWMHWVRQAPGQGLEWMGAIYPGLSDTTYSQKFKGKVTMTRDTSTSTVYMKLSSLRSEDTAVYYCARLLDYAMDYWGQGTLVTVSS
VL: DIQMTQSPSSLSASVGDRVTITCRASQDIRSYLNWHQQKPGKAPKLLIWYTSRLHSGVPSRFSGSGSGTDYTLTISSLEPEDFATYFCQQGETLPWTFGQGTKLEIKR
notes: Humanized monoclonal antibody; also called anti-CD73 antibody C2
B3: C1 (antibody, human IgG1, kappa, L234A L235A, V domains shown)
VH: B2 VH with L55F
VL: B2 VL
notes: Humanized monoclonal antibody; also called anti-CD73 antibody C1

Key:
cell-bound CD73 [1] = molecular target: T1, cell-bound CD73; assay: cell-based or functional assay
non-cell-bound CD73 = molecular target: T2, non-cell-bound CD73; assay: cell-based or functional assay
[2] = molecular target: T3, recombinant human CD73 protein; assay: cell-based or functional assay
cell-bound CD73 [3] = molecular target: T1, cell-bound CD73; assay: cell-based or functional assay; remark: listed apart in the source
cell-bound CD73 [4] = molecular target: T1, cell-bound CD73; assay: cell-based or functional assay; remark: listed apart in the source
cell-bound CD73 [5] = molecular target: T1, cell-bound CD73; assay: cell-based or functional assay; remark: listed apart in the source
cell-bound CD73 [6] = molecular target: T1, cell-bound CD73; assay: cell-based or functional assay; remark: listed apart in the source
cell-bound CD73 [7] = molecular target: T1, cell-bound CD73; assay: cell-based or functional assay; remark: listed apart in the source
human CD73-His = molecular target: T4, human CD73-His; assay: SPR (ProteOn XPR36), antibody captured on Protein A/G, dimeric human CD73-His as analyte, avidity format, 1:1 Langmuir fit
Procedure: For the avidity format, the experiment was performed on a Bio-Rad ProteOn XPR36 instrument. Antibodies were captured via Protein A/G and the non-covalent dimeric antigens were flowed over the captured surface. The running buffer for this experiment and all dilutions were prepared in PBS-T-EDTA. The GLM sensor chip was normalized and pre-conditioned as per the manufacturer's recommendations. The sensor chip was activated with an equal mixture of EDC/s-NHS in the horizontal direction for 300 s at a flow rate of 30 μL/min and immobilized with recombinant Protein A/G (50 μg/ml in 10 mM acetate pH 4.5) in the horizontal direction for 300 s at a flow rate of 30 μL/min resulting in about 5000 RU of Protein A/G on the surface. The sensor chip was deactivated with 1M ethanolamine-HCl in the horizontal direction for 300 s at a flow rate of 30 μL/min. The sensor chip was regenerated with 18 s of 0.85% phosphoric acid at a flow rate of 100 μL/min 2 times horizontally and 2 times vertically.
About 300 RU of antibody was captured on the Protein A/G surface vertically for 60 s at a flow rate of 30 μL/min. The capture surface was stabilized by injecting PBS-T-EDTA for 60 s at a flowrate of 100 μL/min horizontally. The analyte (human CD73-His) was injected horizontally over the captured antibody for 600 s at a flow rate of 30 μL/min with a dissociation of 1200 s. The concentrations of human CD73-His were 0 nM, 3.125 nM, 6.25 nM, 12.5 nM, 25 nM and 50 nM. The surface was regenerated by injecting 0.85% phosphoric acid for 18 s at a flow rate of 100 μL/min one time horizontally and one time vertically.
The interspot (interactions with sensor surface) and blank (PBS-T-EDTA or 0 nM analyte) were subtracted from the raw data.

mouse CD73 = molecular target: T5, mouse CD73; assay: SPR, mouse CD73 compared with human CD73 (reference)

Molecule	% of max. adenosine inhibition, washed Colo-201 cells (cell-bound CD73 [1]) [%]	CD8 T cell proliferation [% of control], Donor A, 1 nM antibody (cell-bound CD73 [1]) [%]	CD8 T cell proliferation [% of control], Donor B, 1 nM antibody (cell-bound CD73 [1]) [%]	CD8 T cell proliferation [% of control], Donor C, 1 nM antibody (cell-bound CD73 [1]) [%]	CD8 T cell proliferation [% of control], Donor D, 1 nM antibody (cell-bound CD73 [1]) [%]	CD8 T cell proliferation [% of control], Donor E, 1 nM antibody (cell-bound CD73 [1]) [%]	CD8 T cell proliferation [% of control], Donor F, 1 nM antibody (cell-bound CD73 [1]) [%]	CD73 surface reduction [%] on Colo201 cells, 24 h, flow cytometry (cell-bound CD73 [1]) [%]	IFNγ release [fold change over control], Donor A, 1 nM antibody (cell-bound CD73 [1]) [fold]	IFNγ release [fold change over control], Donor B, 1 nM antibody (cell-bound CD73 [1]) [fold]	% of max. adenosine inhibition, Colo-201 culture supernatant (non-cell-bound CD73) [%]	IC90 of inhibition of CD73 enzymatic function (luciferase-based assay) [2] [nM]	CD73 surface reduction [%] on Colo201 cells, 24 h, flow cytometry (cell-bound CD73 [3]) [%]	Max. adenosine inhibition [%] in Colo201 cells (cell-bound CD73 [4]) [%]	CD8 T cell proliferation [% of control], Donor A, 1 nM antibody (cell-bound CD73 [5]) [%]	CD8 T cell proliferation [% of control], Donor B, 1 nM antibody (cell-bound CD73 [5]) [%]	IFNγ release [fold change over control], Donor A, 1 nM antibody (cell-bound CD73 [6]) [fold]	IFNγ release [fold change over control], Donor B, 1 nM antibody (cell-bound CD73 [6]) [fold]	% of max. adenosine inhibition, washed Colo-201 cells (cell-bound CD73 [7]) [%]	Kd (human CD73-His) [nM]	other results
"MEDI9447" (antibody)	62	43.9	46.7	115	98	85.5	-34.1	17	7.7	5.3	56										IFNγ release [fold change over control], Donor C, 1 nM antibody (cell-bound CD73 [1]): 16.2 fold; IFNγ release [fold change over control], Donor D, 1 nM antibody (cell-bound CD73 [1]): 20.7 fold; IFNγ release [fold change over control], Donor E, 1 nM antibody (cell-bound CD73 [1]): 5 fold; IFNγ release [fold change over control], Donor F, 1 nM antibody (cell-bound CD73 [1]): 1.1 fold; Max. adenosine inhibition [%] in Colo201 cells (cell-bound CD73 [1]): 63%
"BMS986179" (antibody)	84	40.7	61.7	99.6	98.7	95.4	22.5	58	10.9	5.2	63										IFNγ release [fold change over control], Donor C, 1 nM antibody (cell-bound CD73 [1]): 36.4 fold; IFNγ release [fold change over control], Donor D, 1 nM antibody (cell-bound CD73 [1]): 13.3 fold; IFNγ release [fold change over control], Donor E, 1 nM antibody (cell-bound CD73 [1]): 7.2 fold; IFNγ release [fold change over control], Donor F, 1 nM antibody (cell-bound CD73 [1]): 2.9 fold; Max. adenosine inhibition [%] in Colo201 cells (cell-bound CD73 [1]): 68%
B1											62	1.04	31	77	55.6	62.2	12.6	8.1	70	0.42	CD8 T cell proliferation [% of control], Donor C, 1 nM antibody (cell-bound CD73 [5]): 95.8%; CD8 T cell proliferation [% of control], Donor D, 1 nM antibody (cell-bound CD73 [5]): 98.5%; CD8 T cell proliferation [% of control], Donor E, 1 nM antibody (cell-bound CD73 [5]): 99.1%; CD8 T cell proliferation [% of control], Donor F, 1 nM antibody (cell-bound CD73 [5]): -8.9%; IFNγ release [fold change over control], Donor C, 1 nM antibody (cell-bound CD73 [6]): 34.1 fold; IFNγ release [fold change over control], Donor D, 1 nM antibody (cell-bound CD73 [6]): 17.7 fold; IFNγ release [fold change over control], Donor E, 1 nM antibody (cell-bound CD73 [6]): 11.1 fold; IFNγ release [fold change over control], Donor F, 1 nM antibody (cell-bound CD73 [6]): 3.1 fold
B2											77	0.49	15	88	103	68.5	20.3	7.8	78	0.063	fold higher binding to human CD73 than to mouse CD73 (mouse CD73): 138 fold
B3											76	0.49	20	86	104	86.7	20.9	12	79	0.072	CD8 T cell proliferation [% of control], Donor C, 1 nM antibody (cell-bound CD73 [5]): 107%; CD8 T cell proliferation [% of control], Donor D, 1 nM antibody (cell-bound CD73 [5]): 99.5%; CD8 T cell proliferation [% of control], Donor E, 1 nM antibody (cell-bound CD73 [5]): 101%; CD8 T cell proliferation [% of control], Donor F, 1 nM antibody (cell-bound CD73 [5]): 84.2%; IFNγ release [fold change over control], Donor C, 1 nM antibody (cell-bound CD73 [6]): 51.3 fold; IFNγ release [fold change over control], Donor D, 1 nM antibody (cell-bound CD73 [6]): 20.9 fold; IFNγ release [fold change over control], Donor E, 1 nM antibody (cell-bound CD73 [6]): 12.8 fold; IFNγ release [fold change over control], Donor F, 1 nM antibody (cell-bound CD73 [6]): 6.7 fold; fold higher binding to human CD73 than to mouse CD73 (mouse CD73): 96 fold

Source: patent US20190352420A1 (Boehringer Ingelheim, published 2019)
